# Results reported in patent publication US20020137076.
# Biological target: RNase A (UniProt P61823)
# Test: inhibition
# UniProt P61823, sequence (P61823 27-150): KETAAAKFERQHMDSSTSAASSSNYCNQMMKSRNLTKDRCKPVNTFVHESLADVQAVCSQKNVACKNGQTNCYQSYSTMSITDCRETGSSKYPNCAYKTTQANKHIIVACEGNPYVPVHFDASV
substance,measurement,setting,value
polyG,Ki,"2 ug/ml polyG, polyC substrate, 100 mM MES, 100 mM NaCl pH 6.0, non-competitive",10 nM
same,Ki,"20 ug/ml polyG, polyC substrate, 100 mM MES, 100 mM NaCl pH 6.0, non-competitive",87.3 nM
same,Ki,"Dixon, 40 mM Tris-HCl pH 7.9, 6 mM MgCl2, 10 mM NaCl, 2 mM spermidine",40 nM
same,Ki,"Dixon, 40 mM Tris-HCl pH 7.9, 6 mM MgCl2, 10 mM NaCl, no spermidine",10 nM
